Data from publication PMC2172930.

Target: p85, the regulatory subunit of PI3-kinase (mouse (endogenous in NIH3T3)) (UniProt P26450)
Experiment: co-IP

Sequence of UniProt P26450 (P26450 whole entry): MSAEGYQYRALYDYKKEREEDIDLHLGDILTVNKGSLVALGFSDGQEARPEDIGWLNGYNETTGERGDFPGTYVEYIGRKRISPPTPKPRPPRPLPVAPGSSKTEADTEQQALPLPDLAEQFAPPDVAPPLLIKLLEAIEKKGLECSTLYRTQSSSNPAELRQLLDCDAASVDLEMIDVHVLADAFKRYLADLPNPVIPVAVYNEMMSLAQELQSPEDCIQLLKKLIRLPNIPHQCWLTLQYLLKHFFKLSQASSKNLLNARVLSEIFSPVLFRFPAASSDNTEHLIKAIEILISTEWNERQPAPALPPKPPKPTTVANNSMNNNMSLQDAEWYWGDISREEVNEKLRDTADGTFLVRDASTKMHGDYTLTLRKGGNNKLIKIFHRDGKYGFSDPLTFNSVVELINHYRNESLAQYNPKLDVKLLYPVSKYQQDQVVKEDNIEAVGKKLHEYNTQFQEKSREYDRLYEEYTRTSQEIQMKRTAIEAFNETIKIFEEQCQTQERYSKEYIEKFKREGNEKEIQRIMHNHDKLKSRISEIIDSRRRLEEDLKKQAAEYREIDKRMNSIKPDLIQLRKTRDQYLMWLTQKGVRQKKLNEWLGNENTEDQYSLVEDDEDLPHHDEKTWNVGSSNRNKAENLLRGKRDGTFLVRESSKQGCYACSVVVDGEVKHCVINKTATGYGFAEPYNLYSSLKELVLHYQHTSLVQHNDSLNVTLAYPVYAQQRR

Substance: androgen receptor (110-kD classical murine AR of NIH3T3 cells) (from UniProt P19091 1-899)
- increase of AR/p85 association on 0.001 nM R1881 against unstimulated cells: 38%
